From IntAct's records for PubMed 19959993

B1: Synaptonemal complex protein ZIP1 (Saccharomyces cerevisiae), P31111 (parent)
chain: MSNFFRDSSMGFKPRPNIFAKLRVRDVDSDSSANTVVENSSNCLDVGSSIEGDDTFKKPHKTSTEQELITSMSLSQRNHGYSDDMEIGSPKKTTSTDQYNRILKNDVAAIENDTDEDFEITEVREVSEGVAKETKESHGDPNDSETTLKDSKMHEYTMTNGKAPLHTSINNSSTSSNDVLLEAFTNTQRICSNLKQELQKQQQDNAKLKVRLQSYASNSDKINEKVGKYKSCLETLQERIATLTSHKNNQETKLKDLRQNHQLYQRRISGFKTSIENLNKTINDLGKNKKEADAELMKKGKEIEYLKRELDDCSGQLSEEKIKNSSLIQEMGKNREEMIKSIENFFSEDKAHHLLQFNKFEERVHDLFEKKLQKHFDVAKDTLNVGLRNTTVELSSNTETMLKQQYEDIKENLEQKMSSSKDEMAKTINELSVTQKGLIMGVQEELLTSSGNIQTALVSEMNNTRQELLDDASQTAKNYASLENLVKAYKAEIVQSNEYEERIKHLESERSTLSSQKNQIISSLGTKEAQYEDLVKKLEAKNIEISQISGKEQSLTEKNENLSNELKKVQDQLEKLNNLNITTKSNYENKISSQNEIVKALVSENDTLKQRIQQLVEIKENEQKDHTTKLEAFQKNNEQLQKLNVEVVQLKAHELELEEQNRHLKNCLEKKETGVEESLSDVKTLKQQVIVLKSEKQDITAEKLELQDNLESLEEVTKNLQQKVQSQKRELEQKIKELEEIKNHKRNEPSKKGTQNFTKPSDSPKKNATTSNLFPNNSAAIHSPMKKCPKVDHISKSRINSSKETSKFNDEFDLSSSSNDDLELTNPSPIQIKPVRGKIKKGSNCMKPPISSRKKLLLVEDEDQSLKISKKRRRK
partner: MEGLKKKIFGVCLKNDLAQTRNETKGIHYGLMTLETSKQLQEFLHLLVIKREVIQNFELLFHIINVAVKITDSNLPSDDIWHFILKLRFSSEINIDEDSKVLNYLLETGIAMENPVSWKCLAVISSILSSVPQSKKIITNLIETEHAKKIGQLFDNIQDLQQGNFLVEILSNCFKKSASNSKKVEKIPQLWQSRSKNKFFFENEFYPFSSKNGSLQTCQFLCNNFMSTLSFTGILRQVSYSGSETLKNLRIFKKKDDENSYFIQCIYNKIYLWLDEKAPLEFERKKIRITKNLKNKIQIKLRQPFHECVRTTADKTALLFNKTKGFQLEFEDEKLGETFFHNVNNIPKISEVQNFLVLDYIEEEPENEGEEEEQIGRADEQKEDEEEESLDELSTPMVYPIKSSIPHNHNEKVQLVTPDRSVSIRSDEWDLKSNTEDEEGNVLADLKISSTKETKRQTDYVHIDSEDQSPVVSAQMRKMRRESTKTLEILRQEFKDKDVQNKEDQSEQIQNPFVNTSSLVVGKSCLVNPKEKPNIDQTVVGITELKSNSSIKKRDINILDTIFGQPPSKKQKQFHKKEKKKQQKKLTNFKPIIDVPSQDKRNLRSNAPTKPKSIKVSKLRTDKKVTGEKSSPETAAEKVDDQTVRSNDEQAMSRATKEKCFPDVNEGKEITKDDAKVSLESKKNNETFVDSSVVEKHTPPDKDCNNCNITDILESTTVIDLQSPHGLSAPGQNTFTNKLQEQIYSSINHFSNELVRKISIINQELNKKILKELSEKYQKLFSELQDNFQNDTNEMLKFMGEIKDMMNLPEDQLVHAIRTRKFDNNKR
B2: Protein RED1 (Saccharomyces cerevisiae), P14291 (parent)
chain: B1 partner

Variants of: B1
Conditions: with red1_yeast RED1, P14291

effect of a mutation on the interaction	Variant
decreasing interaction	D863R
decreasing interaction	Q864R
decreasing interaction	E862R

Variants of: B2
Conditions: with smt3_yeast SMT3, Q12306
Sequence of smt3_yeast SMT3, Q12306 (Q12306 whole entry): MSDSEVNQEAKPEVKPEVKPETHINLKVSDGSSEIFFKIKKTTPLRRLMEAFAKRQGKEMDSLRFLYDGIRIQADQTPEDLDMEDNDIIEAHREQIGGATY

effect of a mutation on the interaction	Variant
decreasing interaction	I758R

Variants of: B2
Conditions: with smt3_yeast SMT3, Q12306
Remark: another data set of the same source

effect of a mutation on the interaction	Variant
decreasing interaction	T717R
decreasing interaction	S715R
